Reference: patent US11672826
Read-outs that look alike come from different tables or passages of the source. One block for each substance: values may come before it.

Experiments:
Assay in all cases: cell-based or functional assay
[1] = target: TGFβ1 (R&D systems) (UniProt P01137)
[2] = target: TGFβ1 (R&D systems) (UniProt P01137); remark: listed apart in the source
[3] = target: IL2Rαβγ on CTLL2 cells
[4] = target: IL2Rβ and common γ chain on 32Dβ cells
[5] = target: IL2Rβ and common γ chain on 32Dβ cells; remark: listed apart in the source
[6] = target: IL2Rβ and common γ chain on 32Dβ cells; remark: listed apart in the source
[7] = target: IL-21R on B9 cells

TGFβ1 (R&D systems), sequence (P01137 279-390 limits assumed): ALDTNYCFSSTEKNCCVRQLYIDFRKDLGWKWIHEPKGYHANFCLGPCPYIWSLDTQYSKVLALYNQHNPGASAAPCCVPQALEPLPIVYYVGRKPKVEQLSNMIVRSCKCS
Human recombinant TGFβRII/Fc, sequence (P37173 24-159): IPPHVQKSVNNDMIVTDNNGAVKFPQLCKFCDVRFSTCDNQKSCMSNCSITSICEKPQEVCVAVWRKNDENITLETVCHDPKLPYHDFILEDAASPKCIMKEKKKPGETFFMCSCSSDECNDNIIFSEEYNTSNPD

IC50, TGFβ1 activity in HEK-Blue TGFβ reporter cells [1]: 0.559 nM | IC50, TGFβ1 activity in HEK-Blue TGFβ reporter cells [2]: 0.461 nM
Substance: Human recombinant TGFβRII/Fc (from UniProt P37173 24-159) (Fc fusion)

EC50 of CTLL-2 cell proliferation (WST1) [3]: 0.548 nM | EC50 of 32Dβ cell proliferation (WST1) [4]: 0.14 nM
Substance: recombinant IL-2 (from UniProt P60568 21-153) (ligand)

EC50 of 32Dβ cell proliferation (WST1) [5]: 0.0106 nM | EC50 of CTLL2 cell proliferation (PrestoBlue) [3]: 0.00495 nM | EC50 of CTLL2 cell proliferation (WST1) [3]: 0.00622 nM | EC50 of 32Dβ cell proliferation (WST1) [4]: 0.0016 nM | EC50 of 32Dβ cell proliferation (WST1) [6]: 0.0166 nM
Substance: recombinant IL-15 (from UniProt P40933 49-162) (ligand)

EC50 of B9 cell proliferation (WST1) [7]: 72.5 nM
Substance: recombinant IL-21 (from UniProt Q9HBE4 32-162) (ligand)
